Experimental data: article PMC2879707 (2011)

Molecular target: F-actin (skeletal muscle actin) (Oryctolagus cuniculus, UniProt P68135)
Experiment: high-speed co-sedimentation

B1: TRIOBP-4 isoform 4 (protein)
chain: MSMEQDTRALLPTQGTAWATASAPVARLQGPQGDSHQACSQEPHSPSSAEAPYCDLPRCPPALQNPLRTTTCVGQSVHSLGLGLGQEPQRVWSPTTALPAEGPAAAPKNRHQDSEGIPYLEGLARSSCTDDNDNKDEDEDPNSNTSSSQDSNTPHDTSNSSSVDWDTTERPGVVPSRNRLTEMIPRRPQEGLRADSARKATRSPARGDTAGQRKENSGSGGQSAGQHWAKLRSESGYFSLERQRSGQTQASSGTPPSGPRGTTQASSAQRDVFQAAPAQEAPQTSSLPRNTQRDTQRSTPRTSSPSRVSQRDTPRVMSTQRKNTPLSSPLRATPETLKISAPEDGTHVTPSPCVQDSSLNRTSQRDSSRTPCIQWDNPRASSPNRTTQRDNPRTPCTQRDNPRASSPNRTTQRDNPRTPCTQRDNPRASSPNRTTQRDNPRTPCAQRDNPRAASPNRSTQRDSPRTPCAQRDNPRASSPNRTAQRDNPRTPCAQRDNPRTSCTSQNTPRTPSTQADKTTASCSKWEHLRSACTQRDNPRTFSQGCTQKDNPGPPSPRRATQGSNSRNPSPHRTNKDIPWASFPLRPTQSDSPRTSSPSRTKQNQVPWASISLRPTQGDKPQTSAPTRLAHNDPPQQYSPSLATTSSSSHNPGHSSASRTSSPLHAAPRGAPQTSLESSQPPCTVCIGHRDAPRASSPPRYFQYDPFPFFPDPRSSESESPHHEPPYMPPAVCIGHRDAPRATSPPRHTQFDPFPFLPDTSDADNESPQHDPPQFPPPVCIGYRDAPRASSPPRQFPEPSFFQDLPRASTESLVPSTDSMHEPPHIPTPVCIGHRDAPSFSSPPRQAPEPSLFFQDPPGTSMESLAPSIDSLHGCPLLPPQVCIGHRDAPRASSPPRHPPSDIGLLAPSPPPGSSGSRGSAPPGETRHNLEREEYTMLADLPPPRRLAQRGPEPQAQGSNEGRTRSPGRAEVERLFGQERRKSEAPGAFQTRDEGRSQRPSQAQSQLRRQSSPAP
modifications: N-terminal GFP and C-terminal FLAG fusion on TRIOBP-4, filamentous actin
- Kd: 940 nM
